Laboratory results reported in publication PMC8885657, “HPV infection alters vaginal microbiome through down-regulating host mucosal innate peptides used by Lactobacilli as amino acid sources” (Nature Communications, 2022).

B1: HD-5: epithelial member of the defensin family, host defense peptide (PeptaNova) (peptide, UniProt Q01523 20-94, looked up)
Defensin alpha 5: ESLQERADEATTQKQSGEDNQDLAISFAGNGLSALRTSGSQARATCYCRTGRCATRESLSGVCEISGRLYRLCCR

Columns and labels:
[1] = tested on: murine vaginal microbiota; test: 16S-based metagenomics of cervico-vaginal lavage samples; type: in vivo, mouse; conditions: FVB/n mice treated (n=12) or not (n=8), subcutaneous implant 1-2 µg/24h, 12 weeks
Text: FVB/n mice expressing HPV16 under the control of the keratin 14 promoter (K14-HPV16 transgenic mice) were obtained from the National Cancer Institute Mouse Repository. Given that (pre)cancer development within the lower genital tract has been previously shown to be hormone-dependent in this model[75],[76], 6 to 8-week-old female mice (n = 12 per condition) were subcutaneously implanted with a Belma’s E2 implant (E2-M/90, Belma Technologies, Liege, Belgium), allowing reproducible long-term release of 17β-estradiol (1–2 µg/24 h) for 90 days[77]. A similar procedure was performed with control (FVB/n) mice. […]
Mice were randomly distributed in cages and housed under standard conditions [12 h light/12 h dark cycle, ad libitum access to food and water, constant temperature (19–21 °C) and humidity (40–50%)] in the GIGA-Mouse facility platform (University of Liege) during the entire course of the study. […] Seven µl from each samples were spread on a glass slide, fixed/stained using Diff-Quick reagents (Medion Diagnostics, Düdingen, Switzerland) and the estrous cycle stage was determined using established criteria.
DNA was isolated from cervico-vaginal lavage samples using NucleoSpin Tissue kit (Macherey Nagel, Düren, Germany). […] Of note, 7 random nucleotides were added to the 5′ region of forward primer to increase complexity and, therefore, improve sequence read quality. […]

[2] = tested on: Lactobacillus jensenii LMG 6414; test: Antimicrobial assay (surviving colonies, CFU count); type: cell-based; conditions: peptide 1–10 µg/ml, 5 × 10^4 CFU/ml, 10 mM sodium phosphate buffer, 6 h, 37 °C; plated on Columbia Blood agar; n = 3
Description: (§1) Bacterial strains Lactobacillus crispatus DSM 20356, Lactobacillus iners CIP 105923 and Garnerella vaginalis CCUG 43336 were kindly provided by the Department of Clinical Microbiology at University Hospital Center of Liege. Lactobacillus jensenii LMG 6414 was obtained from BCCM/LMG Bacteria Collection (University of Gent, Belgium). Log-phase bacteria were grown on Columbia agar with 5% sheep blood (Becton Dickinson, Franklin Lakes, NJ, USA) at 37 °C in a humidified CO2 atmosphere (Lactobacilli) or in anaerobic jars (G. vaginalis). To analyze the antimicrobial effect of innate peptides expressed by vaginal/cervical mucosa, 5 × 10^4 colony-forming unit (CFU)/ml were mixed with different peptides (concentration range: 1–10 µg/ml) in 10 mM sodium phosphate buffer (SPB) (final volume 100 µl) and incubated for 45 min to 9 h at 37 °C. Where indicated, the peptides were incubated with 2 mM dithiothreitol (DTT) (Invitrogen, Carlsbad, CA, USA) for 30 min at 37 °C before adding the bacteria. In indicated experiments, incubation was carried out in potassium phosphate buffer (KPB) (pH: 7.4, 10 mM). The following peptides were tested: HβD1 (PeptaNova, Sandhausen, Germany), HβD2 (PeptaNova), HβD3 (PeptaNova), HβD4 (PeptaNova), HD-5 (PeptaNova), HD-6 (PeptaNova), elafin (PeptaNova), S100A7 (Abnova, Taipei City, Taiwan) and SLPI (R&D Systems, Minneapolis, MI, USA). Bacterial suspensions were then plated on Columbia Blood agar plates for 24–48 h to determine CFU. High-resolution images for each condition were taken. Colony detection and counts were finally performed using ImageJ software (NIH, Bethesda, MD, USA) and verified by manual counting.

[3] = tested on: Lactobacillus iners CIP 105923; test: as above; type: cell-based; conditions: peptide 1–10 µg/ml, 5 × 10^4 CFU/ml, 10 mM sodium phosphate buffer, 6 h, 37 °C; plated on Columbia Blood agar; n = 3
Description: as §1

Gardnerella vaginalis = test: as above; type: cell-based; conditions: peptide 1–10 µg/ml, 5 × 10^4 CFU/ml, 10 mM sodium phosphate buffer, 6 h, 37 °C; plated on Columbia Blood agar; n = 5
Description: as §1

[4] = tested on: Lactobacillus crispatus DSM 20356; test: as above; type: cell-based; conditions: peptide 1–10 µg/ml, 5 × 10^4 CFU/ml, 10 mM sodium phosphate buffer, 6 h, 37 °C; plated on Columbia Blood agar; n = 3
Description: as §1

| Molecule | composition of murine vaginal microbiota (α- and β-diversity, richness, evenness) [1] | effect on bacterial growth/survival (percentage of surviving colonies) [2] | effect on bacterial growth/survival (percentage of surviving colonies) [3] | effect on bacterial growth/survival (percentage of surviving colonies) (Gardnerella vaginalis) | effect on bacterial growth/survival (percentage of surviving colonies) [4] |
| --- | --- | --- | --- | --- | --- |
| C[C@]12CC[C@@H]3c4ccc(O)cc4CC[C@H]3[C@@H]1CC[C@@H]2O [17β-estradiol] | not altered |  |  |  |  |
| B1 |  | inhibit the growth | inhibit the growth | inhibit the growth | inhibit the growth |
